Sequences and labels used below:
B1: Ube2G2 (untagged, from 6xHis-SUMO-Ube2G2) (enzyme)
chain: MAGTALKRLMAEYKQLTLNPPEGIVAGPMNEENFFEWEALIMGPEDTCFEFGVFPAILSFPLDYPLSPPKMRFTCEMFHPNIYPDGRVCISILHAPGDDPMGYESSAERWSPVQSVEKILLSVVSMLAEPNDESGANVDASKMWRDDREQFYKIAKQIVQKSLGL

Common to all, as to assay: SEC
The target in assay [1] is GST-Gp78c (aa309-643, RING-CUE-G2BR) (UniProt Q9UKV5 309-643).
Assay [2] concerns the target B1.
Assay [3] concerns the target B1. This is another data set of the same source.

Here are results for 4 molecules from article PMC12000298 (Communications Biology, 2025).

Read-outs that look alike come from different tables or passages of the source.

Chain of GST-Gp78c (aa309-643, RING-CUE-G2BR) (Q9UKV5 309-643): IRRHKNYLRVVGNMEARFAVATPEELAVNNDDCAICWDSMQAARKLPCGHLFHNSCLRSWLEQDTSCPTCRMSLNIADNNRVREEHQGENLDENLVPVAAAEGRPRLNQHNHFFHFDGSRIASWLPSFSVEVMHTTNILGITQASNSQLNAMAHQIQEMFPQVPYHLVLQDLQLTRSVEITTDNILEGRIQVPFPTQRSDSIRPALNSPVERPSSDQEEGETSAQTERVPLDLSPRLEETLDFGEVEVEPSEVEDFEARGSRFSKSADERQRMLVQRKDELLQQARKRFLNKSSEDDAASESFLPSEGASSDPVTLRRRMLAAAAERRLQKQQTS

Turning to B1, the binding result in assay [1] was “binds”.

For the molecule GGSSSADERQRMLVQRKDELLQQARKRFLNKS [SBP-His6-G2BR^Gp78], the binding result in assay [2] is listed as “binds”.

For the molecule GGSSSSWARQESLQERKQALYEYARRRFTER [SBP-His6-G2BR^AUP1], the binding result in assay [2] was “binds”.

B2: CUE-G2BR^AUP1 (AUP1 C-terminal region, aa292-410) (domain or fragment)
chain: SPDVQLATLAQRVKEVLPHVPLGVIQRDLAKTGCVDLTITNLLEGAVAFMPEDITKGTQSLPTASASKFPSSGPVTPQPTALTFAKSSWARQESLQERKQALYEYARRRFTERRAQEAD
As to B2, the binding result in assay [3] was “binds”.
